Experimental findings from paper PMC11542177, “Recurrent Neurodevelopmentally Associated Variants of the Pre-mRNA Splicing Factor U2AF2 Alter RNA Binding Affinities and Interactions” are described below.

What all share (experiment): fluorescence anisotropy; Fluorescence anisotropy: 25 nM RNA, 100 mM NaCl, 25 mM HEPES pH 6.8, 0.2 mM TCEP; temperature not stated; three replicates
What all share (details): protein: recombinant; label: 5'-fluorescein; single strand

In data set [1] the target is U2AF2 12L Arg149Trp (UniProt P26368 141-342, R149W).
Chain of U2AF2 12L Arg149Trp (P26368 141-342 R149W): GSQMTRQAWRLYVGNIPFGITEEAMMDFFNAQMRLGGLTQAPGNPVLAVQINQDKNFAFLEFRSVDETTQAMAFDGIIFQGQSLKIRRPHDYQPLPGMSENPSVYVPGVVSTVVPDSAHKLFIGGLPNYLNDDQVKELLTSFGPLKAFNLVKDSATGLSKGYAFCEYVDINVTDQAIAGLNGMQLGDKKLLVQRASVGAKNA
The target in data set [2] is U2AF2 12L Arg150His (UniProt P26368 141-342, R150H).
Chain of U2AF2 12L Arg150His (P26368 141-342 R150H): as the sequence (P26368 141-342 R149W) above, with W9R, R10H counted along it
Data set [3] concerns the target U2AF2 12L Arg150Cys (UniProt P26368 141-342, R150C).
The target in data set [4] is U2AF2 12L WT (UniProt P26368 141-342).
Chain of U2AF2 12L WT (P26368 141-342): as the sequence (P26368 141-342 R149W) above, with W9R counted along it

Chain of U2AF2 12L Arg150Cys (P26368 141-342 R150C): as the sequence (P26368 141-342 R149W) above, with W9R, R10C counted along it

Consider UUUUUUUUU (ssRNA) [nine-uridine consensus Py tract RNA], for which the binding signal in data set [1] was ~3 fold decrease in affinity vs WT; in data set [2] it was ~4 fold decrease in affinity vs WT; in data set [3], ~5 fold decrease in affinity vs WT. Further, the binding result in data set [4] is on record as “binds”.
